Measured values from patent US20220363770A1 (Amgen, published 2022).

T1: human PAC1 receptor (human, UniProt P41586 24-468)
T1 sequence: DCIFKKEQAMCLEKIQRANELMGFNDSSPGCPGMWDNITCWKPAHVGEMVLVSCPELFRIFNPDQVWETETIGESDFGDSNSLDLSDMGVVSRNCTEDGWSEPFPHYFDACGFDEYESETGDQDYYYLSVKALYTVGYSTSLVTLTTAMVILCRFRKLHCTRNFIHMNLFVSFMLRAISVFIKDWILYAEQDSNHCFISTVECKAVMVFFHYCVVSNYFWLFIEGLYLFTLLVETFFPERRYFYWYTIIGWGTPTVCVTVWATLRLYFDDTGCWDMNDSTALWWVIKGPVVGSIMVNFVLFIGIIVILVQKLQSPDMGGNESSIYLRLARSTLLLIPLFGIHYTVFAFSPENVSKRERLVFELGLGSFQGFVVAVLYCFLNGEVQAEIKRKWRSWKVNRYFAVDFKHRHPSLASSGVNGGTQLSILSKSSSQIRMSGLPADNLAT


Columns and labels:
human CGRP receptor = human CGRP receptor (human, UniProt Q16602 23-461; O60894 27-148); assay: cell-based or functional assay
human PAC1 receptor = molecular target: T1, human PAC1 receptor; assay: cell-based or functional assay

Sequence of human CGRP receptor (Q16602 23-461 limits assumed, chain 1 of 2): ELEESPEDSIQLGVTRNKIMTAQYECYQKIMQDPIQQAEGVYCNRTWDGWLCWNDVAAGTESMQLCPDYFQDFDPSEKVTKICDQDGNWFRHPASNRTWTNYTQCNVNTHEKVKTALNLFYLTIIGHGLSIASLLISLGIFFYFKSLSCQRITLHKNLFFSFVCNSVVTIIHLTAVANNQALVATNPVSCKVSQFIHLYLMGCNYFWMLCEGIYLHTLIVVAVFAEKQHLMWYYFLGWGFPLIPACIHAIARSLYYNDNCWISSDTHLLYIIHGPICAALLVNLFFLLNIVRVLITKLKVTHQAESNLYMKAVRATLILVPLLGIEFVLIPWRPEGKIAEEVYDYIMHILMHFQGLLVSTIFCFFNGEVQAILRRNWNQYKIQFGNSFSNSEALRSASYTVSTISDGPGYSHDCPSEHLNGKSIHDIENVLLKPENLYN
Sequence of human CGRP receptor (O60894 27-148 limits assumed, chain 2 of 2): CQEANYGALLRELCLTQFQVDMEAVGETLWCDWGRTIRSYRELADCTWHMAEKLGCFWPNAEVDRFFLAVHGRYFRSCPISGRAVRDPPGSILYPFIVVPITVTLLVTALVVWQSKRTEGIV

Binder | Fold-improvement over 4E4 Ab (human CGRP receptor) | IC50 (human CGRP receptor) | Fold-improvement over 29G4v22 Ab (human PAC1 receptor) | IC50 (human PAC1 receptor)
iPS:454765 (bispecific antibody, human IgG1, kappa, lambda, N297G) light 1: QSVLTQPPSVSAAPGQKVTISCSGSYSNIGRYSVSWYQQLPGTAPKLLIYDNNKRPSGIPDRFSGSKSGTSATLGITGLQTGDEADYYCGTWDSRLSAVVFGGGTKLTVLGQPKAAPSVTLFPPSSEELQANKATLVCLISDFYPGAVTVAWKADSSPVKAGVETTTPSKQSNNKYAAKSYLSLTPEQWKSHRSYSCQVTHEGSTVEKTVAPTECS heavy 1: QVQLVESGGGVVQPGRSLRLSCAASGFTFSSFGMHWVRQAPGKGLEWVAVISFDGSIKYSVDSVKGRFTISRDNSKNTLFLQMNSLRAEDTAVYYCARDRLNYYESSGYYHYKYYGMAVWGQGTTVTVSSASTKGPSVFPLAPSSKSTSGGTAALGCLVKDYFPEPVTVSWNSGALTSGVHTFPAVLQSSGLYSLESVVTVPSSSLGTQTYICNVNHKPSNTKVDKKVEPKSCDKTHTCPPCPAPELLGGPSVFLFPPKPKDTLMISRTPEVTCVVVDVSHEDPEVKFNWYVDGVEVHNAKTKPCEEQYGSTYRCVSVLTVLHQDWLNGKEYKCKVSNKALPAPIEKTISKAKGQPREPQVYTLPPSRKKMTKNQVSLTCLVKGFYPSDIAVEWESNGQPENNYKTTPPVLKSDGSFFLYSKLTVDKSRWQQGNVFSCSVMHEALHNHYTQKSLSLSPGK light 2: EIVLTQSPATLSLSPGERATLSCRASQSVGRSLHWYQQKPGQAPRLLIKYASQSLSGIPARFSGSGSGTDFTLTISSLEPEDFAVYYCHQSSRLPFTFGPGTKVDIKRTVAAPSVFIFPPSDEQLKSGTASVVCLLNNFYPREAKVQWKVDNALQSGNSQESVTEQDSKDSTYSLESTLTLSKADYEKHKVYACEVTHQGLSSPVTKSFNRGEC heavy 2: not shown | 1.6 fold | 0.34 nM | 7.8 fold | 0.71 nM
iPS:454767 (bispecific antibody, human IgG1, kappa, lambda, N297G) light 1: QSVLTQPPSVSAAPGQKVTISCSGSYSNIGRYSVSWYQQLPGTAPKLLIYDNNKRPSGIPDRFSGSKSGTSATLGITGLQTGDEADYYCGTWDSRLSAVVFGGGTKLTVLGQPKAAPSVTLFPPSSEELQANKATLVCLISDFYPGAVTVAWKADSSPVKAGVETTTPSKQSNNKYAAKSYLSLTPEQWKSHRSYSCQVTHEGSTVEKTVAPTECS heavy 1: QVQLVESGGGVVQPGRSLRLSCAASGFTFSSFGMHWVRQAPGKGLEWVAVISFDGSIKYSVDSVKGRFTISRDNSKNTLFLQMNSLRAEDTAVYYCARDRLNYYESSGYYHYKYYGMAVWGQGTTVTVSSASTKGPSVFPLAPSSKSTSGGTAALGCLVKDYFPEPVTVSWNSGALTSGVHTFPAVLQSSGLYSLESVVTVPSSSLGTQTYICNVNHKPSNTKVDKKVEPKSCDKTHTCPPCPAPELLGGPSVFLFPPKPKDTLMISRTPEVTCVVVDVSHEDPEVKFNWYVDGVEVHNAKTKPCEEQYGSTYRCVSVLTVLHQDWLNGKEYKCKVSNKALPAPIEKTISKAKGQPREPQVYTLPPSRKKMTKNQVSLTCLVKGFYPSDIAVEWESNGQPENNYKTTPPVLKSDGSFFLYSKLTVDKSRWQQGNVFSCSVMHEALHNHYTQKSLSLSPGK light 2: EIVLTQSPATLSLSPGERATLSCRASQSVGRSLHWYQQKPGQAPRLLIKYASQSLSGIPARFSGSGSGTDFTLTISSLEPEDFAVYYCHQSSRLPFTFGPGTKVDIKRTVAAPSVFIFPPSDEQLKSGTASVVCLLNNFYPREAKVQWKVDNALQSGNSQESVTEQDSKDSTYSLESTLTLSKADYEKHKVYACEVTHQGLSSPVTKSFNRGEC heavy 2: not shown | 1.2 fold | 0.41 nM | 9 fold | 0.71 nM
iPS:454769 (bispecific antibody, human IgG1, kappa, lambda, N297G) light 1: QSVLTQPPSVSAAPGQKVTISCSGSYSNIGRYSVSWYQQLPGTAPKLLIYDNNKRPSGIPDRFSGSKSGTSATLGITGLQTGDEADYYCGTWDSRLSAVVFGGGTKLTVLGQPKAAPSVTLFPPSSEELQANKATLVCLISDFYPGAVTVAWKADSSPVKAGVETTTPSKQSNNKYAAKSYLSLTPEQWKSHRSYSCQVTHEGSTVEKTVAPTECS heavy 1: QVQLVESGGGVVQPGRSLRLSCAASGFTFSSFGMHWVRQAPGKGLEWVAVISFDGSIKYSVDSVKGRFTISRDNSKNTLFLQMNSLRAEDTAVYYCARDRLNYYESSGYYHYKYYGMAVWGQGTTVTVSSASTKGPSVFPLAPSSKSTSGGTAALGCLVKDYFPEPVTVSWNSGALTSGVHTFPAVLQSSGLYSLESVVTVPSSSLGTQTYICNVNHKPSNTKVDKKVEPKSCDKTHTCPPCPAPELLGGPSVFLFPPKPKDTLMISRTPEVTCVVVDVSHEDPEVKFNWYVDGVEVHNAKTKPCEEQYGSTYRCVSVLTVLHQDWLNGKEYKCKVSNKALPAPIEKTISKAKGQPREPQVYTLPPSRKKMTKNQVSLTCLVKGFYPSDIAVEWESNGQPENNYKTTPPVLKSDGSFFLYSKLTVDKSRWQQGNVFSCSVMHEALHNHYTQKSLSLSPGK light 2: EIVLTQSPATLSLSPGERATLSCRASKSVGRSLHWYQQKPGQAPRLLIKYASQSLSGIPARFSGSGSGTDFTLTISSLEPEDFAVYYCHQSSRLPFTFGPGTKVDIKRTVAAPSVFIFPPSDEQLKSGTASVVCLLNNFYPREAKVQWKVDNALQSGNSQESVTEQDSKDSTYSLESTLTLSKADYEKHKVYACEVTHQGLSSPVTKSFNRGEC heavy 2: not shown | 1.7 fold | 0.32 nM | 7.2 fold | 0.78 nM
iPS:454771 (bispecific antibody, human IgG1, kappa, lambda, N297G) light 1: QSVLTQPPSVSAAPGQKVTISCSGSYSNIGRYSVSWYQQLPGTAPKLLIYDNNKRPSGIPDRFSGSKSGTSATLGITGLQTGDEADYYCGTWDSRLSAVVFGGGTKLTVLGQPKAAPSVTLFPPSSEELQANKATLVCLISDFYPGAVTVAWKADSSPVKAGVETTTPSKQSNNKYAAKSYLSLTPEQWKSHRSYSCQVTHEGSTVEKTVAPTECS heavy 1: QVQLVESGGGVVQPGRSLRLSCAASGFTFSSFGMHWVRQAPGKGLEWVAVISFDGSIKYSVDSVKGRFTISRDNSKNTLFLQMNSLRAEDTAVYYCARDRLNYYESSGYYHYKYYGMAVWGQGTTVTVSSASTKGPSVFPLAPSSKSTSGGTAALGCLVKDYFPEPVTVSWNSGALTSGVHTFPAVLQSSGLYSLESVVTVPSSSLGTQTYICNVNHKPSNTKVDKKVEPKSCDKTHTCPPCPAPELLGGPSVFLFPPKPKDTLMISRTPEVTCVVVDVSHEDPEVKFNWYVDGVEVHNAKTKPCEEQYGSTYRCVSVLTVLHQDWLNGKEYKCKVSNKALPAPIEKTISKAKGQPREPQVYTLPPSRKKMTKNQVSLTCLVKGFYPSDIAVEWESNGQPENNYKTTPPVLKSDGSFFLYSKLTVDKSRWQQGNVFSCSVMHEALHNHYTQKSLSLSPGK light 2: EIVLTQSPATLSLSPGERATLSCRASKSVGRSLHWYQQKPGQAPRLLIKYASQSLSGIPARFSGSGSGTDFTLTISSLEPEDFAVYYCHQSSRLPFTFGPGTKVDIKRTVAAPSVFIFPPSDEQLKSGTASVVCLLNNFYPREAKVQWKVDNALQSGNSQESVTEQDSKDSTYSLESTLTLSKADYEKHKVYACEVTHQGLSSPVTKSFNRGEC heavy 2: not shown | 1.4 fold | 0.37 nM | 7.6 fold | 0.84 nM
iPS:454773 (bispecific antibody, human IgG1, kappa, lambda, N297G) light 1: QSVLTQPPSVSAAPGQKVTISCSGSYSNIGRYSVSWYQQLPGTAPKLLIYDNNKRPSGIPDRFSGSKSGTSATLGITGLQTGDEADYYCGTWDSRLSAVVFGGGTKLTVLGQPKAAPSVTLFPPSSEELQANKATLVCLISDFYPGAVTVAWKADSSPVKAGVETTTPSKQSNNKYAAKSYLSLTPEQWKSHRSYSCQVTHEGSTVEKTVAPTECS heavy 1: QVQLVESGGGVVQPGRSLRLSCAASGFTFSSFGMHWVRQAPGKGLEWVAVISFDGSIKYSVDSVKGRFTISRDNSKNTLFLQMNSLRAEDTAVYYCARDRLNYYESSGYYHYKYYGMAVWGQGTTVTVSSASTKGPSVFPLAPSSKSTSGGTAALGCLVKDYFPEPVTVSWNSGALTSGVHTFPAVLQSSGLYSLESVVTVPSSSLGTQTYICNVNHKPSNTKVDKKVEPKSCDKTHTCPPCPAPELLGGPSVFLFPPKPKDTLMISRTPEVTCVVVDVSHEDPEVKFNWYVDGVEVHNAKTKPCEEQYGSTYRCVSVLTVLHQDWLNGKEYKCKVSNKALPAPIEKTISKAKGQPREPQVYTLPPSRKKMTKNQVSLTCLVKGFYPSDIAVEWESNGQPENNYKTTPPVLKSDGSFFLYSKLTVDKSRWQQGNVFSCSVMHEALHNHYTQKSLSLSPGK light 2: EIVLTQSPATLSLSPGERATLSCRASKAVGWSLHWYQQKPGQAPRLLIKYASQSLSGIPARFSGSGSGTDFTLTISSLEPEDFAVYYCHQSSRLPFTFGPGTKVDIKRTVAAPSVFIFPPSDEQLKSGTASVVCLLNNFYPREAKVQWKVDNALQSGNSQESVTEQDSKDSTYSLESTLTLSKADYEKHKVYACEVTHQGLSSPVTKSFNRGEC heavy 2: not shown | 0.9 fold | 0.57 nM | 7.7 fold | 0.83 nM
iPS:454775 (bispecific antibody, human IgG1, kappa, lambda, N297G) light 1: QSVLTQPPSVSAAPGQKVTISCSGSYSNIGRYSVSWYQQLPGTAPKLLIYDNNKRPSGIPDRFSGSKSGTSATLGITGLQTGDEADYYCGTWDSRLSAVVFGGGTKLTVLGQPKAAPSVTLFPPSSEELQANKATLVCLISDFYPGAVTVAWKADSSPVKAGVETTTPSKQSNNKYAAKSYLSLTPEQWKSHRSYSCQVTHEGSTVEKTVAPTECS heavy 1: QVQLVESGGGVVQPGRSLRLSCAASGFTFSSFGMHWVRQAPGKGLEWVAVISFDGSIKYSVDSVKGRFTISRDNSKNTLFLQMNSLRAEDTAVYYCARDRLNYYESSGYYHYKYYGMAVWGQGTTVTVSSASTKGPSVFPLAPSSKSTSGGTAALGCLVKDYFPEPVTVSWNSGALTSGVHTFPAVLQSSGLYSLESVVTVPSSSLGTQTYICNVNHKPSNTKVDKKVEPKSCDKTHTCPPCPAPELLGGPSVFLFPPKPKDTLMISRTPEVTCVVVDVSHEDPEVKFNWYVDGVEVHNAKTKPCEEQYGSTYRCVSVLTVLHQDWLNGKEYKCKVSNKALPAPIEKTISKAKGQPREPQVYTLPPSRKKMTKNQVSLTCLVKGFYPSDIAVEWESNGQPENNYKTTPPVLKSDGSFFLYSKLTVDKSRWQQGNVFSCSVMHEALHNHYTQKSLSLSPGK light 2: EIVLTQSPATLSLSPGERATLSCRASKSVGWSLHWYQQKPGQAPRLLIKYASQSLSGIPARFSGSGSGTDFTLTISSLEPEDFAVYYCHQSSRLPFTFGPGTKVDIKRTVAAPSVFIFPPSDEQLKSGTASVVCLLNNFYPREAKVQWKVDNALQSGNSQESVTEQDSKDSTYSLESTLTLSKADYEKHKVYACEVTHQGLSSPVTKSFNRGEC heavy 2: not shown | 1.4 fold | 0.38 nM | 6.7 fold | 0.83 nM
